Test results taken from patent US10479836B2, “Method for treating pulmonary hypertension with interleukin-5 receptor antibody” (University of Toyama, priority 2015, dated 2019).
Entries after “also recorded” stand apart in the source; their conditions may differ.

B1: KM8808: core fucose-deficient anti-dinitrophenol (DNP) rat/human chimeric antibody, isotype control (antibody, V domains shown)
VH: EVQLQESGPGLVKPSQSLSLTCSVTGYSITSGYWNWIRKFPGNKMEWIGYISYSGSTYYNPSLKSRISITRDTSKNQFFLQLNSVTTEDTATYYCARWGVRHYFDYWGQGVMATVSS
VL: DVVMTQTPVSLPVSLGGQASISCRSSQSLANSYGNTYLSWYLQKPGQSPQLLIYRVSNTFSGVPDRFSGSGSGTDFTLKISRVEPEDLGDYYCLQGTHQPYTFGAGTKLELK
B2: KM6161: N-linked sugar chain-deficient anti-DNP rat/human chimeric antibody containing N297A substitution, isotype control (antibody, V domains shown)
VH: EVQLQESGPGLVKPSQSLSLTCSVTGYSITSGYWNWIRKFPGNKMEWIGYISYSGSTYYNPSLKSRISITRDTSKNQFFLQLNSVTTEDTATYYCARWGVRHYFDYWGQGVMATVSS
VL: DVVMTQTPVSLPVSLGGQASISCRSSQSLANSYGNTYLSWYLQKPGQSPQLLIYRVSNTFSGVPDRFSGSGSGTDFTLKISRVEPEDLGDYYCLQGTHQPYTFGAGTKLELK
B3: H7-2: core fucose-deficient H7 chimeric antibody, human IgG1, with Cys at VL position 87 replaced with Ser (antibody, V domains shown)
VH: EVQLQQSGAELGKPGTSVKLSCKVSGYNIKNTYIHWVNQRPGKGLEWIGRIDPANGNPIYAEKFKNKATLTADTSSNTAYMQLSQLKSDDTAIYFCAMHRGHSMGPGPYVMDAWGQGASVTVSS
VL: DIQMTQSPASLSASLGETVTIECRTSEDIYNGLAWYQQKPGKSPQLLIYNANSLHTGVPSRFSGSGSGTQYSLKINSLQSEDVASYSCQQYSNYPFTFGSGTKLEIK
B4: H7-4: N-linked sugar chain-deficient H7 chimeric antibody, human IgG1 (N297A), with Cys at VL position 87 replaced with Ser (antibody, V domains shown)
VH: EVQLQQSGAELGKPGTSVKLSCKVSGYNIKNTYIHWVNQRPGKGLEWIGRIDPANGNPIYAEKFKNKATLTADTSSNTAYMQLSQLKSDDTAIYFCAMHRGHSMGPGPYVMDAWGQGASVTVSS
VL: DIQMTQSPASLSASLGETVTIECRTSEDIYNGLAWYQQKPGKSPQLLIYNANSLHTGVPSRFSGSGSGTQYSLKINSLQSEDVASYSCQQYSNYPFTFGSGTKLEIK

Key:
Y16 cells [1] = experiment: ADCC activity against Y16 cells with human PBMC effector cells (LDH release); assay type: cell-based, mouse; conditions: 4 hrs, 0.0001-1000 ng/mL (control antibodies 1000 ng/mL), FIG. 13
Description: The H7 recombinant chimeric antibodies prepared in Example 8 were evaluated for their ADCC activity against Y16 cells using frozen human peripheral blood mononuclear cells (PBMCs) (manufactured by AllCells) as effector cells. The frozen human PBMCs were shake-cultured (37° C., 5% CO2, overnight) in RPMI1640 medium containing 5% FBS. The Y16 cells (target cells) and the human PBMCs (effector cells) were washed with ADCC assay medium (RPIM1640 containing 5% dialyzed FBS) and adjusted to cell densities of 2×10^5 cells/mL and 3×10^6 cells/mL, respectively. The cells were washed twice with a medium and then suspended into cell densities of 4×10^5 cells/mL. Each chimeric antibody adjusted to a final concentration of 0.0001, 0.001, 0.01, 0.1, 1, 10, 100, or 1000 ng/mL, the target cells (2×10^4 cells/well), and the effector cells (5×10^5 cells/well) were added in this order at 50 μL/well to a 96-well U-bottom plate. The control antibodies used were the rtDNP-1 hIgG1 (DF) antibody (KM8808) and the rtDNP-1 hIgG1 (N297A) antibody (KM6161) of Example 10 adjusted to a final concentration of 1000 ng/mL. The plate was centrifuged (500 rpm, 5 min) and then left standing in an incubator (37° C., 5% CO2, 4 hrs). The plate was centrifuged (1500 rpm, 5 min) to recover a supernatant at 50 μL/well into a 96-well Flat-bottom plate (manufactured by Sumitomo Bakelite Co., Ltd.). Lactate dehydrogenase (LDH) activity in the supernatant was detected using CytoTox 96 Non-Radioactive Cytotoxicity Assay (manufactured by Promega Corp.). Absorbance at 490 nm was measured using a plate reader SPECTRA MAX 340 PC384 (manufactured by Molecular Devices, LLC). The ADCC activity (%) was calculated according to the following equation using background-corrected measurement values. Cytotoxicity=[[Absorbance of the sample]−[Absorbance derived from spontaneous release from the target cells and the effector cells]]/[[Absorbance derived from total release from the target cells]−[Absorbance derived from spontaneous release from the target cells]]

[2] = tested on: IL-33-induced vascular wall thickening (SMA-positive cells); experiment: IL-33-induced vascular wall thickening, immunofluorescent staining of lung tissue; assay type: in vivo, mouse; conditions: IL-5+/+ mice, 100 μg antibody i.p. five times; lung tissue day 21
Description: (§1) In an experimental system similar to that of Example 3, in order to confirm the inhibitory effects of anti-IL-5R antibodies and anti-IL-5 neutralizing antibodies on vascular wall thickening, 100 μg of the H7 (CS) hIgG1 (DF) (H7-2) antibody, the H7 (CS) hIgG1 (N297A) (H7-4) antibody, an anti-IL-5 antibody (ligand-neutralizing antibody, clone name: TRFK5), the anti-DNP antibody KM8808, the anti-DNP antibody KM6161, or rat IgG (clone name: HRPN) was intraperitoneally administered to each IL-5^+/+ mouse a total of five times (3 consecutive days (three times) from two days before the first rIL-33 administration day (day 0), once on the second rIL-33 administration day (day 7), and once on the third rIL-33 administration day (day 14)) (FIG. 15). Then, on day 21, lung tissues were resected and evaluated by FCM and immunofluorescent staining.
In the immunofluorescent staining, the tissues were sliced into 30 μm, and slides were prepared and then stained with an Alexa 488-conjugated anti-SMA antibody (1A4) (manufactured by Abcam plc) and an Alexa 647-conjugated anti-Siglec-F antibody (E50-2440). The nuclei of the cells were stained with Hoechst 33342 (manufactured by Life Technologies Corp.). Here, the degree of the growth of SMA-positive cells (primary media-constituting cells) was observed.

[3] = tested on: eosinophils (CD45-positive, Gr1-negative, Siglec-F-positive cells); experiment: IL-33-induced increase of lung eosinophils, FCM of lung cell suspension; assay type: in vivo, mouse; conditions: IL-5+/+ mice, 100 μg antibody i.p. five times; for inhibition of IL-33-induced increase in the number of eosinophils: FCM day 21, FIG. 16; for abundance ratio of eosinophils, in absence of IL-33 (PBS): PBS instead of IL-33; for abundance ratio of eosinophils, in absence of IL-33 (PBS) / abundance ratio of eosinophils, in presence of IL-33: lung cells day 21, FCM; for abundance ratio of eosinophils, in presence of IL-33: rIL-33 days 0, 7, 14
Description: as §1
In the FCM, 1×10^6 cells in the lung cell suspension were stained with a PE-Cy7-conjugated anti-CD45 antibody (30-F11), an APC-conjugated anti-Gr1 antibody (RB6-8C5), and a PE-conjugated anti-Siglec-F antibody (E50-2440) (all manufactured by BD Biosciences). CD45-positive, Gr1-negative, and Siglec-F-positive cells were regarded as eosinophils, and the influence of antibody administration was observed.

Y16 cells [4] = experiment: IL-5 signal inhibition: rIL-5-dependent Y16 growth inhibition (WST-1); assay type: cell-based, mouse; conditions: rIL-5 5 units/mL, 24 hours; for inhibition of Y16 cell growth (IL-5 signal-inhibiting function): antibody 0.01-10 μg/mL, FIG. 14
Description: Whether or not the various recombinant chimeric antibodies prepared in Example 8 would have the function of inhibiting IL-5 signals was studied by using Y16 growth inhibition as an index. 2×10^3 Y16 cells were cultured for 24 hours in the presence or absence of rIL-5 (5 units/mL) after addition of the Cys substitution-containing core fucose-unlinked H7 recombinant chimeric antibody H7 (CS) hIgG1 (DF) (H7-2), the N-linked sugar chain-deficient H7 recombinant chimeric antibody H7 (CS) hIgG1 (N297A) (H7-4), and the anti-DNP antibodies KM8808 and KM6161 at a concentration of 0.01, 0.1, 1, or 10 μg/mL. 24 hours later, these antibodies were evaluated for their ability to inhibit growth using Premix WST-1 Cell Proliferation Assay System (manufactured by Takara Bio Inc.). The culture time after addition of the reagent of the cell growth assay kit was set to 1 hour.

[5] = tested on: mouse IL-5Rα-expressing cell Y16; experiment: Antigen binding activity of chimeric antibodies on Y16 cells by FCM; assay type: cell-based; conditions: FIG. 12
Description: The chimeric antibodies prepared in Example 8 were evaluated for their antigen binding activity using a mouse-derived cell line Y16 expressing IL-5R. The Y16 cells were washed with SM (staining medium containing 2% FCS, 0.05% NaN3, and 1 mM EDTA in PBS). Then, Mouse BD Fc Block (manufactured by Becton, Dickinson and Company) was added thereto at a concentration of 5 μg/mL, and the mixture was left standing at 4° C. for 30 min. The cells were inoculated at a cell number of 1×10^5 cells/well to a 96-well U-bottom plate, and each chimeric antibody adjusted to a final concentration of 10000, 2500, 625, 156, 39, 10, 2.4, or 0.6 ng/mL was added thereto, followed by reaction at 4° C. for 60 min. The rat/human chimeric control antibodies used were rtDNP-1 hIgG1 (DF) antibody (KM8808) and rtDNP-1 hIgG1 (N297A) antibody (KM6161). The nucleotide sequences and amino acid sequences of the variable regions of each isotype control antibody are shown in SEQ ID NOs: 29 to 34. After washing of the cells with SM, Goat F(ab′)2 Anti-Human IgG PE (γ chain specific) (manufactured by Southern Biotech) diluted 500-fold with SM was added thereto, followed by reaction at 4° C. for 60 min. After washing of the cells with SM, the cells were resuspended in 50 μL of SM. Fluorescence intensity was measured by FCM (flow cytometer FACS Canto II (manufactured by Becton, Dickinson and Company)). The data was analyzed using FlowJo 7.65 (manufactured by Tomy Digital Biology Co., Ltd.) to calculate a Geomean value at each concentration.

Molecule	ADCC activity against Y16 cells (Y16 cells [1])	inhibition of IL-33-induced vascular wall thickening (immunofluorescent staining) [2]	inhibition of IL-33-induced increase in the number of eosinophils [3]	abundance ratio of eosinophils, in absence of IL-33 (PBS) [3] [%]	abundance ratio of eosinophils, in presence of IL-33 [3] [%]	inhibition of Y16 cell growth (IL-5 signal-inhibiting function) (Y16 cells [4])	binding ability to Y16 cells, H7-1 and H7-2 compared [5]	Y16 growth inhibiting ability, H7-2 and H7-4 compared (Y16 cells [4])
B1	none	not observed	not inhibited	1.19	48.3	not observed		
B2	none	not observed	not inhibited	0.92	52.4	not observed		
B3	exhibited antibody concentration-dependent ADCC activity	inhibited most strongly; also recorded: vascular wall thickening inhibitory effect superior to H7-4 or the IL-5 ligand-neutralizing antibody	inhibited almost completely; also recorded: superior in eosinophil growth-inhibiting function	0.24	1.58	inhibited the growth of the Y16 cells in an antibody concentration-dependent manner	slight rise in binding ability	equivalent inhibiting ability
B4	none	at a degree poorer than that of H7-2	at a degree poorer than that of H7-2	0.17	29.1	inhibited the growth of the Y16 cells in an antibody concentration-dependent manner		equivalent inhibiting ability
